# In PMC6555819, “Comprehensive study of nuclear receptor DNA binding provides a revised framework for understanding receptor specificity”:
# Biological target: PPARa:RXRa (Homo sapiens, UniProt Q07869;P19793 full;full)
# Assay: no ligand; PBM; 270 nM : 90 nM RXRa; PBS pH 7.4, 2% milk, 0.02% Triton X-100, 1 mM DTT, BSA, 0.4 mg/ml salmon testes DNA
# Settings: tags: GST kept;His cleaved; copies: 1;1; label: surface-attached array probe
# Summary of the method: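 Binding buffer was PBS pH 7.4 with 2% milk, 0.02% Triton X-100, 1 mM DTT, 0.2 mg/mL BSA and 0.4 mg/ml salmon testes DNA. In it, ligand-free nuclear receptor dimers were incubated 1 h on custom Agilent 4×180K protein-binding microarrays carrying double-stranded probes. Antibodies against each partner (one per run) detected binding, and z-scores were calculated against random background probes after regression normalization of scanned fluorescence.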
# Chain of PPARa:RXRa (Q07869 whole entry, chain 1 of 2): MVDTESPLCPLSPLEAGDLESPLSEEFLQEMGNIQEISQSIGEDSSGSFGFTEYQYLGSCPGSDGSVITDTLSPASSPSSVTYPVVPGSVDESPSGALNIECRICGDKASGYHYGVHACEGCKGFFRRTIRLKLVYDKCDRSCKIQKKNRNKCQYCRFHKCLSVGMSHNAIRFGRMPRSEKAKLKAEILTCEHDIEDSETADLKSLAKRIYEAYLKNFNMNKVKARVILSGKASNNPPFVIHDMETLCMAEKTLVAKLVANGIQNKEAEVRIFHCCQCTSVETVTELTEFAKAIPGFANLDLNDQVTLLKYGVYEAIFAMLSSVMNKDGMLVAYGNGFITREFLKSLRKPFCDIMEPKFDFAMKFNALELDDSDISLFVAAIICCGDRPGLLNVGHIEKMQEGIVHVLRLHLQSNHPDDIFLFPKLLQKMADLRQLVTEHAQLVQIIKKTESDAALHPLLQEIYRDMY
# Chain of PPARa:RXRa (P19793 whole entry, chain 2 of 2): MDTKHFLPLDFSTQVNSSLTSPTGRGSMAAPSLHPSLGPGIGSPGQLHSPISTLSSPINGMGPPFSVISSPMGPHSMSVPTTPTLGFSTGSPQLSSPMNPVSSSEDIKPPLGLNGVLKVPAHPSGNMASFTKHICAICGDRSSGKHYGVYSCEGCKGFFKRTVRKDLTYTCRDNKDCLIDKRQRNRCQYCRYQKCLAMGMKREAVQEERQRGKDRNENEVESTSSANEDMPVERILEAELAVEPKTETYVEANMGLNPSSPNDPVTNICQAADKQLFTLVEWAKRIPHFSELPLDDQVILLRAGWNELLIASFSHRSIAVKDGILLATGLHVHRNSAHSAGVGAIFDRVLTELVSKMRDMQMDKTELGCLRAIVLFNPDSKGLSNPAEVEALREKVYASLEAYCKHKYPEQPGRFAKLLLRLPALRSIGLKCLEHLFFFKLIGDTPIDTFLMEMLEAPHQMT
row,Binder,binding signal
1,NRC3_wobSeed121_DR5_A26T_o1 (dsDNA) DNA 1: GCCAAACTAGGTCACCGGAAGGTCATAGTCCGCATGGCGATTGACAGCGTAGAATGAAGG DNA 2: CCTTCATTCTACGCTGTCAATCGCCATGCGGACTATGACCTTCCGGTGACCTAGTTTGGC,6.6 PBM z-score against 500 random probes
2,NRC3_wobSeed36_DR1_G9T_o1 (dsDNA) DNA 1: GCCCGACTTGGGCAAAGGTTACCATACTCAGTACGAGCGATTGACAGCGTAGAATGAAGG DNA 2: CCTTCATTCTACGCTGTCAATCGCTCGTACTGAGTATGGTAACCTTTGCCCAAGTCGGGC,3.64 PBM z-score against 500 random probes
3,NRC3_wobSeed29_DR1_G24A_o1 (dsDNA) DNA 1: GCGCTTACGGGTCAAAGGTTATAACATGAATAGAATGCGATTGACAGCGTAGAATGAAGG DNA 2: CCTTCATTCTACGCTGTCAATCGCATTCTATTCATGTTATAACCTTTGACCCGTAAGCGC,7.28 PBM z-score against 500 random probes
4,NRC3_wobSeed29_DR1_C4A_o1 (dsDNA) DNA 1: GCGATTACGGGTCAAAGGTTATAGCATGAATAGAATGCGATTGACAGCGTAGAATGAAGG DNA 2: CCTTCATTCTACGCTGTCAATCGCATTCTATTCATGCTATAACCTTTGACCCGTAATCGC,7.27 PBM z-score against 500 random probes
5,NRC3_wobSeed76_DR3_A16C_o1 (dsDNA) DNA 1: GCCCTACTGGGCCAACAAGGTCATTGATGCCGATAAGCGATTGACAGCGTAGAATGAAGG DNA 2: CCTTCATTCTACGCTGTCAATCGCTTATCGGCATCAATGACCTTGTTGGCCCAGTAGGGC,3.78 PBM z-score against 500 random probes
6,NRC3_wobSeed40_DR1_G16A_o1 (dsDNA) DNA 1: GCTAGCCTAGGTCATAGGCCAGTATACCACGCGAACGCGATTGACAGCGTAGAATGAAGG DNA 2: CCTTCATTCTACGCTGTCAATCGCGTTCGCGTGGTATACTGGCCTATGACCTAGGCTAGC,3.72 PBM z-score against 500 random probes
7,NRC3_wobSeed25_DR1_A5T_o1 (dsDNA) DNA 1: GCCATACTAGGTCAAAGGTCAAAGTCGAGCCAACCAGCGATTGACAGCGTAGAATGAAGG DNA 2: CCTTCATTCTACGCTGTCAATCGCTGGTTGGCTCGACTTTGACCTTTGACCTAGTATGGC,8.27 PBM z-score against 500 random probes
8,NRC3_wobSeed25_DR1_A6T_o1 (dsDNA) DNA 1: GCCAATCTAGGTCAAAGGTCAAAGTCGAGCCAACCAGCGATTGACAGCGTAGAATGAAGG DNA 2: CCTTCATTCTACGCTGTCAATCGCTGGTTGGCTCGACTTTGACCTTTGACCTAGATTGGC,8.22 PBM z-score against 500 random probes
9,NRC3_wobSeed25_DR1_G24A_o1 (dsDNA) DNA 1: GCCAAACTAGGTCAAAGGTCAAAATCGAGCCAACCAGCGATTGACAGCGTAGAATGAAGG DNA 2: CCTTCATTCTACGCTGTCAATCGCTGGTTGGCTCGATTTTGACCTTTGACCTAGTTTGGC,8.04 PBM z-score against 500 random probes
10,NRC3_wobSeed77_DR3_A18G_o1 (dsDNA) DNA 1: GCACTTACGGGTCAACGGGGTTATAGCACGCGTATAGCGATTGACAGCGTAGAATGAAGG DNA 2: CCTTCATTCTACGCTGTCAATCGCTATACGCGTGCTATAACCCCGTTGACCCGTAAGTGC,6.51 PBM z-score against 500 random probes
11,NRC3_wobSeed116_DR4_A18G_o1 (dsDNA) DNA 1: GCAGAATGAGGTTACCAGAGATCAGGGAAACGCTTGGCGATTGACAGCGTAGAATGAAGG DNA 2: CCTTCATTCTACGCTGTCAATCGCCAAGCGTTTCCCTGATCTCTGGTAACCTCATTCTGC,3.63 PBM z-score against 500 random probes
12,NRC3_wobSeed116_DR4_C15A_o1 (dsDNA) DNA 1: GCAGAATGAGGTTAACAAAGATCAGGGAAACGCTTGGCGATTGACAGCGTAGAATGAAGG DNA 2: CCTTCATTCTACGCTGTCAATCGCCAAGCGTTTCCCTGATCTTTGTTAACCTCATTCTGC,3.61 PBM z-score against 500 random probes
13,NRC3_wobSeed97_DR4_G27T_o1 (dsDNA) DNA 1: GCCAAACTAGGTCACGAAAGGTCAAATTCGAATGACGCGATTGACAGCGTAGAATGAAGG DNA 2: CCTTCATTCTACGCTGTCAATCGCGTCATTCGAATTTGACCTTTCGTGACCTAGTTTGGC,7.06 PBM z-score against 500 random probes
14,NRC3_wobSeed97_DR4_C29G_o1 (dsDNA) DNA 1: GCCAAACTAGGTCACGAAAGGTCAAAGTGGAATGACGCGATTGACAGCGTAGAATGAAGG DNA 2: CCTTCATTCTACGCTGTCAATCGCGTCATTCCACTTTGACCTTTCGTGACCTAGTTTGGC,6.97 PBM z-score against 500 random probes
15,NRC3_wobSeed134_DR5_A30G_o1 (dsDNA) DNA 1: GCGCTGCTAGGTCAACTGATGGTCAGCTAGAGCTCGGCGATTGACAGCGTAGAATGAAGG DNA 2: CCTTCATTCTACGCTGTCAATCGCCGAGCTCTAGCTGACCATCAGTTGACCTAGCAGCGC,3.59 PBM z-score against 500 random probes
16,NRC3_wobSeed33_DR1_T4G_o1 (dsDNA) DNA 1: GCAGCTCTAGGTAAAAGTTCAGTGAATCCCGAGGATGCGATTGACAGCGTAGAATGAAGG DNA 2: CCTTCATTCTACGCTGTCAATCGCATCCTCGGGATTCACTGAACTTTTACCTAGAGCTGC,3.86 PBM z-score against 500 random probes
17,NRC3_wobSeed141_DR5_G16C_o1 (dsDNA) DNA 1: GCAGTCAAAGTTCAGCACGAGGTAACGTAAAGCACGGCGATTGACAGCGTAGAATGAAGG DNA 2: CCTTCATTCTACGCTGTCAATCGCCGTGCTTTACGTTACCTCGTGCTGAACTTTGACTGC,3.7 PBM z-score against 500 random probes

row,Binder,binding signal
1,NRC3_wobSeed66_DR2_A6T_o1 (dsDNA) DNA 1: GCAATTCAGGGTCACTAGGCCAGAGTAGGTACGAATGCGATTGACAGCGTAGAATGAAGG DNA 2: CCTTCATTCTACGCTGTCAATCGCATTCGTACCTACTCTGGCCTAGTGACCCTGAATTGC,6.63 PBM z-score against 500 random probes
2,NRC3_wobSeed53_DR2_G9A_o1 (dsDNA) DNA 1: GCCCTTACAGGTCACGAGGTTATAGCACGACGAGCGGCGATTGACAGCGTAGAATGAAGG DNA 2: CCTTCATTCTACGCTGTCAATCGCCGCTCGTCGTGCTATAACCTCGTGACCTGTAAGGGC,6.65 PBM z-score against 500 random probes
3,NRC3_wobSeed124_DR5_A29T_o1 (dsDNA) DNA 1: GCCCTACTGGGCCATTCAGAGGTCATTGTTCATATGGCGATTGACAGCGTAGAATGAAGG DNA 2: CCTTCATTCTACGCTGTCAATCGCCATATGAACAATGACCTCTGAATGGCCCAGTAGGGC,3.73 PBM z-score against 500 random probes
4,NRC3_wobSeed124_DR5_C17G_o1 (dsDNA) DNA 1: GCCCTACTGGGCCATTGAGAGGTCATTGATCATATGGCGATTGACAGCGTAGAATGAAGG DNA 2: CCTTCATTCTACGCTGTCAATCGCCATATGATCAATGACCTCTCAATGGCCCAGTAGGGC,3.57 PBM z-score against 500 random probes
5,NRC3_wobSeed31_DR1_A15T_o1 (dsDNA) DNA 1: GCTCATATAGGTAATAGGTGAAAGTCGGTGTGGTAAGCGATTGACAGCGTAGAATGAAGG DNA 2: CCTTCATTCTACGCTGTCAATCGCTTACCACACCGACTTTCACCTATTACCTATATGAGC,3.69 PBM z-score against 500 random probes
6,NRC3_wobSeed44_DR1_A6C_o1 (dsDNA) DNA 1: GCTGACTGAGGTTAAAGATCAGGGAACGTGGCGTCGGCGATTGACAGCGTAGAATGAAGG DNA 2: CCTTCATTCTACGCTGTCAATCGCCGACGCCACGTTCCCTGATCTTTAACCTCAGTCAGC,3.82 PBM z-score against 500 random probes
7,NRC3_wobSeed28_DR1_T26C_o1 (dsDNA) DNA 1: GCCCTACTGGGCCAAAGGTCATTGACTCCAATGCTCGCGATTGACAGCGTAGAATGAAGG DNA 2: CCTTCATTCTACGCTGTCAATCGCGAGCATTGGAGTCAATGACCTTTGGCCCAGTAGGGC,6.99 PBM z-score against 500 random probes
8,NRC3_wobSeed28_DR1_C12G_o1 (dsDNA) DNA 1: GCCCTACTGGGGCAAAGGTCATTGATTCCAATGCTCGCGATTGACAGCGTAGAATGAAGG DNA 2: CCTTCATTCTACGCTGTCAATCGCGAGCATTGGAATCAATGACCTTTGCCCCAGTAGGGC,6.86 PBM z-score against 500 random probes
9,NRC3_wobSeed64_DR2_G19A_o1 (dsDNA) DNA 1: GCTAGCCTAGGTCATTGGACCAGTATAGTACGCATCGCGATTGACAGCGTAGAATGAAGG DNA 2: CCTTCATTCTACGCTGTCAATCGCGATGCGTACTATACTGGTCCAATGACCTAGGCTAGC,3.84 PBM z-score against 500 random probes
10,NRC3_wobSeed120_DR4_G5C_o1 (dsDNA) DNA 1: GCCCCAGTAGGTTACGAGGGGGCATTCAGTGCGAATGCGATTGACAGCGTAGAATGAAGG DNA 2: CCTTCATTCTACGCTGTCAATCGCATTCGCACTGAATGCCCCCTCGTAACCTACTGGGGC,3.76 PBM z-score against 500 random probes
11,NRC3_wobSeed41_DR1_T4A_o1 (dsDNA) DNA 1: GCAAATGTAGGTTAAGGGTCATTCAGGTTGGTTCGCGCGATTGACAGCGTAGAATGAAGG DNA 2: CCTTCATTCTACGCTGTCAATCGCGCGAACCAACCTGAATGACCCTTAACCTACATTTGC,6.91 PBM z-score against 500 random probes
12,NRC3_wobSeed30_DR1_T5C_o1 (dsDNA) DNA 1: GCACCAGCAGGCCAAGGGTCACTCAAGATTAGTCCGGCGATTGACAGCGTAGAATGAAGG DNA 2: CCTTCATTCTACGCTGTCAATCGCCGGACTAATCTTGAGTGACCCTTGGCCTGCTGGTGC,3.87 PBM z-score against 500 random probes
13,NRC3_wobSeed65_DR2_A5C_o1 (dsDNA) DNA 1: GCATCTGTAGGTTATCGGGTCATTCAGTTTGCGCATGCGATTGACAGCGTAGAATGAAGG DNA 2: CCTTCATTCTACGCTGTCAATCGCATGCGCAAACTGAATGACCCGATAACCTACAGATGC,3.8 PBM z-score against 500 random probes
14,NRC3_wobSeed136_DR5_A30G_o1 (dsDNA) DNA 1: GCTAGCCTAGGTCATTCAGGGGCCAGTATGGAAAGCGCGATTGACAGCGTAGAATGAAGG DNA 2: CCTTCATTCTACGCTGTCAATCGCGCTTTCCATACTGGCCCCTGAATGACCTAGGCTAGC,3.67 PBM z-score against 500 random probes
15,NRC3_wobSeed136_DR5_C24T_o1 (dsDNA) DNA 1: GCTAGCCTAGGTCATTCAGGGGCTAGTATAGAAAGCGCGATTGACAGCGTAGAATGAAGG DNA 2: CCTTCATTCTACGCTGTCAATCGCGCTTTCTATACTAGCCCCTGAATGACCTAGGCTAGC,3.65 PBM z-score against 500 random probes
16,NRC3_wobSeed125_DR5_C15G_o1 (dsDNA) DNA 1: GCCCTTACGGGTCAGTGACAGGTTATAGCATTTGGAGCGATTGACAGCGTAGAATGAAGG DNA 2: CCTTCATTCTACGCTGTCAATCGCTCCAAATGCTATAACCTGTCACTGACCCGTAAGGGC,3.89 PBM z-score against 500 random probes
